Measurements: paper PMC9621426, “Characterization of a novel pyruvate kinase from Trichinella spiralis and its participation in sugar metabolism, larval molting and development” (PLOS Neglected Tropical Diseases, 2022)

Assays:
purified protein [1] = substrate: Nc1ncnc2c1ncn2[C@@H]1O[C@H](COP(=O)(O)OP(=O)(O)O)[C@@H](O)[C@H]1O; assay: purified protein; assay type: biochemical, Trichinella spiralis; details: co-substrate PEP, Tris-HCl pH 8.0, 37°C
purified protein [2] = substrate: C=C(OP(=O)(O)O)C(=O)O; assay: purified protein; assay type: biochemical, Trichinella spiralis; details: co-substrate ADP, Tris-HCl pH 8.0, 37°C

B1: rTsPKM (recombinant T. spiralis pyruvate kinase M) (Trichinella spiralis) (protein)
chain: MSEKQSQKSRKLAKVAAIPAKTTLEHLCRLDTDHSVEKLVSKTGLICTIGPASCSVETLTKMIQAGMTIARLNFSHGSHDYHAQTVANIRKAVDSLAASGNGKVVAIALDTKGPEIRTGYLAVGSNEEVVVEANSAVRVTVDSGMKFRCTESLIYVDYENMPKVVSKGSKIYIDDGLISLLVNEVADNHLDCVVEHGGKLGSCKGVNLPDCEVDLPAVSEKDAQDLQFAVKHQCDMVFASFVRSAEAVRQIRQTLGVEGRGIKIVAKIENRQGIANVDSIIEEADGVMIARGDLGIEIPAEQVFVAQKAIIAKCRLAGKPAICATQMLESMVDKARPTRAEITDVANAVLDGADCVMLSGETAKGRHPVQAVRTMHQICCQAESVFFQKHFFDELQAMLPRPMNAMDTIAFAVTTAAANCNASAIILLTNTGASAVALSKCRPSSMIISVVKKEQTARYLRLYSGILPCVYDSKNSSSSSPNAVVDWVTSVDQRINYAILFGKKERIIHDGDNVIVVNGWREGPGHTNTIRIFAVEPLIPRP
B1 was tested, and the Km (purified protein [1]) was 3330 µM and the Km (purified protein [2]) was 1510 µM.
